PMC11485255, “Structure of a fully assembled γδ T cell antigen receptor” (Nature, 2024)

Key:
CD3ε on Jurkat T cells = biological target: T1, CD3ε on Jurkat T cells (human (endogenous in Jurkat), UniProt P07766); assay: flow cytometry on cells; cells pre-incubated with increasing concentrations of UCHT1 Fab, then stained with fluorescent UCHT1 antibody; conditions: one partner purified
T1 construct: CD3-ε as part of the TCR–CD3 complex at the cell surface; source: endogenous, on Jurkat T cells (TCR transductants)

[1] = biological target: T2, CD3-ε, full length, GFP2-fused (human, UniProt P07766); assay: cryo-EM structure; subunits co-expressed in CHO-S and purified as one complex in detergent; tenfold molar excess of UCHT1 Fab added before a final SEC in 10 mM HEPES pH 7.4, 150 mM NaCl, 0.02% GDN; 3.01 Å consensus map and 3.39 Å TM-focused map; conditions: both partners purified
T2 construct: CD3-ε, full length; source: CHO-S, lentiviral transduction, co-expressed with the other subunits; purified as the complex from LMNG-solubilised membranes (Strep-Tactin XT, SEC in GDN)
T2 sequence (P07766 23-207): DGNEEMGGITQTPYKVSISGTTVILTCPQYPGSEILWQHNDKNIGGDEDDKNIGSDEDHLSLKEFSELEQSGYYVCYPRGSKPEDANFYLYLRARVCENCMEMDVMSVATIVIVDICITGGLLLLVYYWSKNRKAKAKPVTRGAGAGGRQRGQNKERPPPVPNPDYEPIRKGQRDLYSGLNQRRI

T1 sequence (P07766 23-207): as above

B1: Fab fragment of the anti-human CD3ε murine antibody UCHT1 (Fab, V domains shown)
VH: EVQLQQSGPELVKPGASMKISCKASGYSFTGYTMNWVKQSHGKNLEWMGLINPYKGVSTYNQKFKDKATLTVDKSSSTAYMELLSLTSEDSAVYYCARSGYYGDSDWYFDVWGQGTTLTVFS
VL: DIQMTQTTSSLSASLGDRVTISCRASQDIRNYLNWYQQKPDGTVKLLIYYTSRLHSGVPSKFSGSGSGTDYSLTISNLEQEDIATYFCQQGNTLPWTFAGGTKLEIK
notes: VH domain of UCHT1; C-γ1 domain of murine IgG1, residues 1-103 of P01868-1; Vκ domain of UCHT1; murine constant kappa domain; Both chains were expressed under a modified cPTPRσ signal peptide ([residues removed], last two residues changed for a KpnI site); also called UCHT1 Fab; source: CHO-K1, lentiviral transduction, purified from culture supernatant (CaptureSelect C-tagXL, Superdex 200)
B1: binds (CD3ε on Jurkat T cells); binds [1].
